Target: T1, human L-selectin (on human leukocytes) (human, UniProt P14151 39-372)
T1 construct: whole, on cells; also called LECAM-1; Lam-1
T1 sequence (looked up): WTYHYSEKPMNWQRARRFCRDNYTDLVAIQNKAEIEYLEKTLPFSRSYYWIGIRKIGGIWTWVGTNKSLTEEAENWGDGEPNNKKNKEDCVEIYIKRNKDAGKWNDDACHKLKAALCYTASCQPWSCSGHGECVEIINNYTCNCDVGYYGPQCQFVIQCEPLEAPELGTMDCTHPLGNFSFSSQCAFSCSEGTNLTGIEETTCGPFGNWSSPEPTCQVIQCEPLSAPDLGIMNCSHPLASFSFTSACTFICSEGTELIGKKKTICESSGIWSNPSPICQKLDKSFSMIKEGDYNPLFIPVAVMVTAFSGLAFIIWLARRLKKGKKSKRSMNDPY
Assay: binding to leukocytes (e.g. FACS analysis)

binding result: binds
B1: HuDreg 55 humanized anti-L-selectin antibody (antibody, human IgG4, kappa, V domains shown)
VH: EVQLVESGGGLVQPGGSLRLSCAASGFTFSTYAMSWVRQAPGKGLEWVASISTGGSTYYPDSVKGRFTISRDNAKNTLYLQMNSLRAEDTAVYYCARDYDGYFDYWGQGTLVTVSS
VL: DIQMTQSPSSLSASVGDRVTITCKASQSVDYDGDSYMNWYQQKPGKAPKLLIYAASNLESGIPSRFSGSGSGTDFTLTISSLQPEDFATYYCQQSNEDPWTFGQGTKVEIKR
